The target of experiment [1] is T1, SC1 Transcription factor 19 (human, UniProt Q9Y242).
T1 construct: GST fusion on the array
T1 sequence (looked up): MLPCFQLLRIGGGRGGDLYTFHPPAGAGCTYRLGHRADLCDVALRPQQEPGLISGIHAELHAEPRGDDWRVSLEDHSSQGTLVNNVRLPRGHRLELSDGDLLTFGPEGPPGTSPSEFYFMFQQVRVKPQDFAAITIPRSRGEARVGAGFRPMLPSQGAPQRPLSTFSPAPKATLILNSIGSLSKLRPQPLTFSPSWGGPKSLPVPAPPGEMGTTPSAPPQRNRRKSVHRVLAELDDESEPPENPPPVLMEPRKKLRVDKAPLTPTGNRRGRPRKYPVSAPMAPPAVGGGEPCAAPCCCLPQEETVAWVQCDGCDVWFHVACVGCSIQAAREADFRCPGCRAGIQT
Nature of the experiment: Invitrogen ProtoArray Human Protein Microarray v4.0; biotinylated synbody, fluorescently labelled streptavidin; fluorescence intensity.
Experimental: (§1) The prescribed cover slip was placed over the array and adjusted to remove air bubbles. The array was incubated in a 50 ml conical tube, printed side up, for 1.5 hours at 4 C without shaking. The array was then removed from the conical tube inserted diagonally into the array chamber, kept on ice. 8 ml probing buffer was added to the chamber wall. The cover slip was removed and the array was incubated in probing buffer for 1 minute on ice. The probing buffer was decanted and drained. Two further washings were performed adding 8 ml probing buffer, incubating on ice for 1 minute, and decanting and draining. 5 nM fluorescently labeled streptavidin diluted in 6 ml probing buffer was incubated on the array for 30 minutes on ice in the dark, after which the solution was decanted and drained. Three wash steps were performed, each by adding 8 ml probing buffer, incubating for 1 minute on ice, decanting, and draining. The array was removed from the chamber, centrifuged at 800×g for 5 minutes at room temperature. The array was dried in the dark for 60 minutes at room temperature, after which it was scanned using a fluorescent microarray scanner and data was taken and analyzed.

For experiment [2], the target named is T2, GRP58 (human, UniProt P30101 25-505, limits assumed).
T2 construct: GST fusion adsorbed on a nitrocellulose slide
T2 sequence (looked up): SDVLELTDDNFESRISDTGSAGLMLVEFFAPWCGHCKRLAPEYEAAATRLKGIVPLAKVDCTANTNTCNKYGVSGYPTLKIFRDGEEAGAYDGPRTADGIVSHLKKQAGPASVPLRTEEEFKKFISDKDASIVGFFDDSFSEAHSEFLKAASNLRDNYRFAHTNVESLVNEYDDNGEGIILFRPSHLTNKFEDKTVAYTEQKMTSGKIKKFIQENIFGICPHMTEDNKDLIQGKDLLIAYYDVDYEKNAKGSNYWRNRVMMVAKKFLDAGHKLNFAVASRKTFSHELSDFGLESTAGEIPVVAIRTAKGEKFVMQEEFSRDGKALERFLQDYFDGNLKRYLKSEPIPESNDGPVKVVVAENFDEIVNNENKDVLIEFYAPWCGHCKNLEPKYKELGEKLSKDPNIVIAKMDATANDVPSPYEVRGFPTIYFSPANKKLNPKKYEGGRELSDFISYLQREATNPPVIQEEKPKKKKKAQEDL
The description is as above.
Experimental: as §1

Experiment [3] addresses T3, PSMA3 (human, UniProt P25788).
T3 construct: GST fusion on the array
The experiment is described as above.
Experimental: as §1

For experiment [4], the target named is T4, transferrin (human, UniProt P02787 20-698).
T4 construct: also called TRF; pooled human transferrin (Sigma)
T4 sequence (P02787 20-698 limits assumed): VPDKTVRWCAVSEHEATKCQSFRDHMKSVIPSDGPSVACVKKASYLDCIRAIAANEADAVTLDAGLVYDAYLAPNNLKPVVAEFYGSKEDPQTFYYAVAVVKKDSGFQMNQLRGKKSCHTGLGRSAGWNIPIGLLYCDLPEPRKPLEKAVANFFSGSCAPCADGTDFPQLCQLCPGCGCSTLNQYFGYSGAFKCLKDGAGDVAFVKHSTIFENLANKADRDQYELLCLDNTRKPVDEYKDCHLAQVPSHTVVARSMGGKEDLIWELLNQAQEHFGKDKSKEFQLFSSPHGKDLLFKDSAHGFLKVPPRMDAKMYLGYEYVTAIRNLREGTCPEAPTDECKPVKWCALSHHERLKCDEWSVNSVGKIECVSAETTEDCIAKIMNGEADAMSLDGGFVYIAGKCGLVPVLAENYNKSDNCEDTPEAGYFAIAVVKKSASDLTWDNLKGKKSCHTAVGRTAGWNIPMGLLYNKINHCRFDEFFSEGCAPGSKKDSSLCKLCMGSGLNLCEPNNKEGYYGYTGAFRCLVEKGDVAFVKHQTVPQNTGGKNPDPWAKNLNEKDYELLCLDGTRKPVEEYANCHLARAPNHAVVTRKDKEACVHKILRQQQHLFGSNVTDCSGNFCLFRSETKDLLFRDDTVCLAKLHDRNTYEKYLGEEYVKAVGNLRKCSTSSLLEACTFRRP
Nature of the experiment: SPR (Biacore A-100), biotinylated transferrin captured on Neutravidin, unpurified peptide injected for 60 s. (In SPR one partner is held on a chip, and binding of the other changes the refractive index at the surface.)

Experiment [5] addresses T4, transferrin. Described as above. The source holds these as a separate data set.
In experiment [6] the target is T4, transferrin. The experiment is described as follows: SPR, transferrin immobilised, Kd from kinetics.
Text: Flow rates and contact times are adjusted as necessary to provide the surface concentration of target desired for the intended application, and may vary by target. In general, for evaluating whether binding occurs, it is preferable to immobilize a relatively large quantity of target, and higher flow rates and/or longer contact times may be used. For determining kinetics, it is preferable to limit the amount of target immobilized so as to minimize rebinding and avidity effects, and lower flow rates and/or contact times may be used.
The target in experiment [7] is T4, transferrin. Nature of the experiment: SPR (Biacore T100), transferrin immobilised.
Text: (§2) Affinity plots were generated for each peptide and fit using a steady state affinity model.
Experiment [8] deals with T4, transferrin. The experiment is described as follows: SPR (Biacore T100), transferrin immobilised (9758 RU), steady state affinity fit.
Text: as §2
The target of experiment [9] is T4, transferrin. Nature of the experiment: reference TRF26 lead peptide.
Experiment [10] addresses T4, transferrin. Nature of the experiment: affinity characterisation of Example 29 (SPR; format for the purified peptides not stated).
Experiment [11] addresses T4, transferrin. The experiment is described as follows: SPR (Biacore A-100), biotinylated transferrin captured on Neutravidin, unpurified peptide injected for 60 s. This is another data set of the same source.
For experiment [12], the target named is T5, Tumor Necrosis Factor-alpha (UniProt P01375 77-233).
T5 construct: Immobilised on pipette tips or SPR chips (amine coupling or biotin capture); also called TNF-α; TNF-alpha
T5 sequence (P01375 77-233 limits assumed): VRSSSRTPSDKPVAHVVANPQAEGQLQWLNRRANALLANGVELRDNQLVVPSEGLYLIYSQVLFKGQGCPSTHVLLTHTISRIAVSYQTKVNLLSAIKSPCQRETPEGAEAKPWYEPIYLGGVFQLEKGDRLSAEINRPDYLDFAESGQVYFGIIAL
The experiment is described as follows: SPR (Biacore T-100), TNF-α amine-coupled to a CM5 chip, synbody concentration series.
Experimental: Candidate TNF-α binding synbodies were screened by surface plasmon resonance (SPR) on a Biacore T-100 SPR instrument to verify binding for TNF-α. A CM5 chip was activated using standard amine coupling chemistry and TNF-α was immobilized. Each synbody was prepared in HBS—N buffer with excess carboxymethyl dextran added to the running buffer to minimize non-specific binding to the chip surface.

Experiment [13] deals with T4, transferrin. Nature of the experiment: SPR (Biacore A-100), purified peptide at several concentrations, equilibrium.
Text: A Biacore A-100 Surface Plasmon Resonance (SPR) system was used to measure the binding response of each peptide to several different target proteins immobilized on a gold surface. The A-100 has four different flow cells and within each flow cell are five addressable spots. Therefore four different proteins and a negative control reference can be used per flow cell. […] Sensorgrams are collected from each immobilized protein, so a binding profile for each analyte versus each of the protein targets is generated for each injection. Target proteins were immobilized using a biotin capture approach in which a CM5 chip was activated using standard amine coupling chemistry and Neutravidin was covalently coupled to the chip. Each biotinylated protein was injected over a single spot and the amount of protein captured was measured. In this manner four proteins were immobilized per flow cell. In this example, the same four proteins were captured in all four flow cells for this experiment.
For experiment [14], the target named is T4, transferrin. The experiment is described as follows: SPR (Biacore A-100), biotinylated transferrin captured on Neutravidin, unpurified peptide injected for 60 s. The source holds these as a separate data set.
Experiment [15] deals with T4, transferrin. The description is as above. This is another data set of the same source.
In experiment [16] the target is T4, transferrin. The description is as above. This is another data set of the same source.
The target of experiment [17] is T5, Tumor Necrosis Factor-alpha. Nature of the experiment: SPR (Biacore A100), TNF-α captured, equilibrium response over a concentration series.
Experimental: (§3) Point-mutant libraries were prepared in 96-well stock plates From the stock plate, peptides were diluted to 50 μM concentration in Biacore HBS-EP buffer (GE Healthcare, Piscataway, N.J.) containing 1 mg/ml carboxymethyl-dextran (Sigma-Aldrich, St. Louis, Mo.) to reduce non-specific binding to the CM-5 SPR chip surface. TNF-αt was captured on a CM-5 chip surface at different capture levels on spots 1, 2, 4, and 5 across all four flow cells corresponding to a 40-200 RU range of predicted Rₘₐₓ binding responses. Spot 3 contained only immobilized neutravidin and served as a reference spot.
(§4) Purified point-mutant affinities were measured on the Biacore A100 using SPR equilibrium binding response across a series of peptide concentrations on an SPR chip with TNF-α captured as described above.
The target is the same in experiment [18]. Nature of the experiment: SPR, kinetic fits of sensorgrams.
Experiment [19] shares this target. The experiment is described as follows: SPR, kinetic fits of sensorgrams (printed 'kon' in a sentence on the off-rate).
The target is the same in experiment [20]. The experiment is described as follows: SPR; reference TNF1 lead peptide.
Experimental: as §3, §4
Experiment [21] shares this target. Nature of the experiment: fluorescence anisotropy; fluorescence anisotropy. (In general: In fluorescence polarisation assays a small probe gives low polarisation when free and higher when bound to something large.)
Experiment [22] has the same target. The experiment is described as follows: SPR-derived binding energies.
Experiment [23] shares this target. The experiment is described as follows: SPR (Biacore A100), TNF-α captured, equilibrium response over a concentration series. This is another data set of the same source.
Experimental: as §3, §4
Experiment [24] has the same target. Nature of the experiment: SPR, kinetic fits of several sensorgrams; Kd from kinetic fits, not equilibrium responses.
Experiment [25] has the same target. Nature of the experiment: SPR (Biacore A100), TNF-α captured, equilibrium response over a concentration series; the cell prints '93', read as 9.3 (decimal point lost).
Experimental: as §3, §4
The target in experiment [26] is albumin. Nature of the experiment: SPR.
Experiment [27] concerns the target T4, transferrin. The experiment is described as follows: SPR (Biacore A-100), biotinylated transferrin captured on Neutravidin, unpurified peptide injected for 60 s. The source holds these as a separate data set.
Experiment [28] concerns the target T4, transferrin. Described as above. The source holds these as a separate data set.
The target of experiment [29] is T4, transferrin. The description is as above. This is another data set of the same source.

A word on the Kd: it is the free concentration of one partner at which half of the binding sites on the other are occupied at equilibrium, for simple one-to-one binding. The term koff denotes a measure of how fast the partners let go of each other. A lower koff goes with slow dissociation.

Where two headings read alike, the source gives them in different places. Ends that are not written are not given here.

T3 sequence (P25788 whole entry, the tested form may be a part): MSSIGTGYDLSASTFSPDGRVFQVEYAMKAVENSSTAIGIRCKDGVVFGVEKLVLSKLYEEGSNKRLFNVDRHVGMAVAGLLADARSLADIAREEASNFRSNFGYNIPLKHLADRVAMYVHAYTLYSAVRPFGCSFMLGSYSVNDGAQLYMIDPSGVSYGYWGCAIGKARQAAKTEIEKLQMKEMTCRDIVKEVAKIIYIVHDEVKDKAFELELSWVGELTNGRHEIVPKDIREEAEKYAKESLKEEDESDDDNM

B1: SYN21-22 (designed binder)
peptide 1: QYHHFMNLKRQGRAQAYGSG
peptide 2: HAYKGPGDMRRFNHSGMGSG
modifications: also: both chains joined by C-terminus to the amines of a branching Lys, Lys-Cys linker with biotinylated Cys thiol
notes: Lysine linker followed by cysteine; the thiol of the cysteine biotinylated for the protein array; also called anti-TRF synbody
As for B1, the binding result in [1], in experiment [2] and in experiment [3] was “binds” in each case.

For the molecule KMRTITYYHLQAILKQRGSC (Unpurified library peptide) [peptide of FIG. 60F], in experiment [4], the binding result is “binds”.

B2: peptide of FIG. 60B (peptide)
peptide: NIRMLLRFTVFPAQKLIGSC
notes: Unpurified library peptide (~50 to 70% pure)
Turning to B2, the binding result in [5] is given as “binds”.

B3: synbody comprising TRF-26 and TRF-23 (Example 9, lysine-linked) (designed binder)
peptide 1: AHKVVPQRQIRHAYNRYGSG
peptide 2: FRGWAHIFFGPHVIYRGGSG
modifications: not fully specified (bridges); also: C-termini joined to alpha or epsilon amines of branching Lys, orientation not given here, followed by C-terminal Cys, Gly or Ala, not given here which
notes: probably the same construct family as SYN23-26
Regarding B3, the Kd in [6] turned out to be 150 nM.

B4: TBPM023 (peptide)
peptide: AHKVVPQRQMRHAYSRYGSC
notes: Clone from mRNA display on a doped TRF26 library; also called TBPMO23
As for B4, the “fold improvement in affinity relative to TRF26” value in experiment [7] was greater than 10 fold. In addition, the dissociation constant Kd in experiment [8] is 11600 nM.

B5: TRF26 P6Y+H12F double mutant (peptide)
peptide: AHKVVYQRQIRFAYNRYGSC
notes: also called P6Y + 1112F (so in the source)
B5: the “Kd Fold-Change Relative to Lead” value in experiment [9] was 190 fold. The same molecule yielded a Kd in experiment [10] of 500 nM.

Regarding DFLWSKSGILSHASWNHGSC (Unpurified library peptide) [peptide of FIG. 60D], the binding result in [11] was “binds”.

B6: TNF1-TNF4-KC-stBu (designed binder)
peptide 1: MKSIIPMSVAQHQGPIKGSG
peptide 2: FMNYPIKVPILVVPIGRGSG
modifications: not fully specified (C-terminus, bridges); also: chain 1 C-terminus on Lys α-amine, chain 2 C-terminus on same Lys ε-amine (branched dimer)
notes: Lysine linker followed by Cys(StBu); also called TNFa1-TNFa 4- KC(stBu)
With B6, in experiment [12], the binding result is listed as “no binding”.

B7: TRF101 (peptide)
peptide: ARDLLIQKNSGQDVDHRGSC
notes: Screened unpurified, then resynthesised and HPLC purified
Consider B7, for which the Kd in experiment [13] turned out to be 78900 nM.

For the molecule QENDQQSFGLGGMMGQAGSC (Unpurified library peptide) [peptide of FIG. 60K], the binding result in experiment [14] is on record as “binds”.

On to DNSRRSAKQRIFMHVDLGSC (Unpurified library peptide) [peptide of FIG. 60G], for which the binding result in experiment [15] was “binds”.

In the case of WMDDIDAPQDEWWVFHHGSC (Unpurified library peptide) [peptide of FIG. 60C], the binding result in experiment [16] is listed as “binds”.

On to FERDPLMMPWSFLQSRQGSC [TNF1 lead peptide], for which, in experiment [17], the “Binding ΔG” value was -5.21 kcal/mol and the Kd was determined as 160000 nM. For the same molecule, the dissociation rate constant (koff) in experiment [18] worked out at 1.6 s⁻¹.

In the case of FERSYLKMPWKFLQSRQGSC [TNF1-opt (D4S+P5Y+M7K+S11K quadruple mutant)], the koff in [19] is 0.2 s⁻¹. Besides, in [20], the “Kd Fold-Change Relative to Lead” value worked out at 100 fold. This molecule also registered a Kd in experiment [21] of 1100 nM. In experiment [22], the “difference in observed binding energy relative to D4S+P5Y+S11K” value was -0.94 kcal/mol, the “difference in observed binding energy relative to P5Y+M7K” value is -1.73 kcal/mol and the “difference in observed binding energy relative to P5Y+S11K” value is -1.66 kcal/mol. Further, in experiment [23], binding was characterised by a dissociation constant (Kd) of 1600 nM and the “Observed Binding ΔG” value is -7.97 kcal/mol. In experiment [24], this molecule showed an equilibrium dissociation constant (Kd) of 700 nM.

For the molecule FERYPLMMPWKFLQSRQGSC [TNF1 D4Y+S11K double mutant], the “Kd Fold-Change Relative to Lead” value in experiment [20] worked out at 17 fold. The molecule also displayed an equilibrium dissociation constant (Kd) in [25] of 9300 nM. Further, the “Observed Binding ΔG” value in experiment [23] is -6.67 kcal/mol.

B8: linker-optimized BP1/BP2 DNA-linked synbody (BP1 on the template strand, BP2 at position 13 from the 3' end of the variable strand) (designed binder)
peptide 1: GTEKGTSGWLKTGSC
peptide 2: EGEWTEGKLSLRGSC
modifications: not fully specified (some residues); cysteine pairing not given here; also: DNA strands hybridised
notes: The two peptide-DNA conjugates are held together by hybridisation of the DNA strands; also called Gal80 synbody; BP1-BP2 containing synbody
As for B8, in experiment [26], the “Kd relative to the Kd for gal80 (fold)” value was greater than 1000 fold.

AMMRMDMAGLNKIVFHQGSC (Unpurified library peptide) [peptide of FIG. 60I]: in experiment [27], the binding result is on record as “binds”.

With TEDNDYMVVSMVVTMEPGSC (Unpurified library peptide) [peptide of FIG. 60L], the binding result in experiment [28] was “binds”.

As to DRDTPWETTNKTEEGIEGSC (Unpurified library peptide) [peptide of FIG. 60J], in experiment [29], the binding result is “binds”.

The record behind these values is patent publication US20190194358A1 (ARIZONA BOARD OF REGENTS A BODY CORPORATE OF THE STATE OF …, published 2019).
